# Measured values reported in patent US20220372112A1 (KEYMED BIOSCIENCES, published 2022).
# T1: human Claudin 18.2 (human, UniProt P56856-2 1-261)
# T1 construct: whole, on cells
# T1 sequence (looked up): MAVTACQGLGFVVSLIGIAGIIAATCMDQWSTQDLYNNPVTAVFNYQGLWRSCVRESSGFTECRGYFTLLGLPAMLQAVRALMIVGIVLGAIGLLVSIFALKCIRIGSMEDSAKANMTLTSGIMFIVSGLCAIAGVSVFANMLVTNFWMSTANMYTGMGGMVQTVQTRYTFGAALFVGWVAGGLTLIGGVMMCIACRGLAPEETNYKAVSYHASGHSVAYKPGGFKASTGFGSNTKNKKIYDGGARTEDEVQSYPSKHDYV
# T2: human Claudin 18.1 (human, UniProt P56856 1-261)
# T2 construct: whole, on cells
# T2 sequence (looked up): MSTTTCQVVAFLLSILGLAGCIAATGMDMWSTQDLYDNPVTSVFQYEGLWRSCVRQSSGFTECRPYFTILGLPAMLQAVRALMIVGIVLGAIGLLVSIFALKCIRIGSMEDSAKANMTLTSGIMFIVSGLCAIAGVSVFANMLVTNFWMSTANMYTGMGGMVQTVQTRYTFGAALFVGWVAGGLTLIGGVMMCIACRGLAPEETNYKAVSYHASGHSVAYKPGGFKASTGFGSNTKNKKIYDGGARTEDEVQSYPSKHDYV
# Molecular target: T1, human Claudin 18.2
# Experiment: flow cytometry (iQue) on HEK293-Claudin 18.2 cells, chimeric IgG1
# Experimental: (§1) The HEK293-Claudin 18.1 cells, HEK293-Claudin 18.2 cells and HEK293 cells at logarithmic growth phase were taken, after digesting, added at 5×10⁴ cells/100 μL to the U-shaped 96-well plate, centrifuged at 1100 rpm for 3 minutes, the supernatant was discarded, the cells were gently patted and loosed, 50 μL of antibody diluted according to the series was added to each well (antibody concentration starts from 100 nM, 5 times dilution in 8 series), and incubate at 4° C. for 1 hour. After the incubation, 140 μL 0.5% BSA was added to each well to wash 3 times, the secondary antibody AlexaFluro647 anti-human IgG (Jackson ImmunoResearch, catalog number: 109-606-170) was added with 30 μL/well, and incubated at 4° C. for 40 minutes. After the incubation, 140 μL 0.5% BSA was added to each well to wash 3 times, and finally resuspended each well with 50 μL PBS for flow cytometry (iQue Screener) detection.
row,EC50 [nM],Binder
1,1.46,"9C9 (antibody, V domains shown, also called Clone 9C9) VH: EVQLKESGPGLVAPSQSLSITCTVSGFSLTNYGVSWIRQPPGKGLEWLGAIWAGGNTNYNSALMSRLSIRKDNSKSQVFLKMNSLQTDDTAMYYCARVGYGNSFANWGQGTLVTVSA VL: DIVMTQSPSSLTVTAGEKVTLSCKSSQTLLNSGNQKNYLTWYQQKPGQPPKLLIYWASTRESGVPDRFTGSGSGTDFTLTISSVQAEDLAVYYCQNNYFYPLTFGAGTRLEIK"
2,0.21,"15D11 (antibody, V domains shown, also called Clone 15D11) VH: QVQLQQSGPGLVAPSQSLSITCTVSGFSLTNYGVSWIRQPPGKGLEWLGAIWAGGNTNYNSALMSRLSIRKDNSKSQVFLKMNSLQTDDTAMYYCARVGYGNSFANWGQGTLVTVSA VL: DIVMTQSPSSLTVTAGEKVTMSCKSSQSLLNSGNLRNYLTWYQQKPGRPPKLLIYWASTRESGVPDRFTGSGSGTDFTLTISSVQAEDLAVYYCQNNYFYPLTFGAGTKLELK"
3,0.19,"25A5 (antibody, V domains shown, also called Clone 25A5) VH: EVQLKESGPGLVAPSQSLSITCTVSGFSLTNYGVSWIRQPPGKGLEWLGAIWAGGNTNYNSALMSRLSIRKDNSKSQVFLKMNSLQTDDTAMYYCARVGYGNSFANWGQGTLVTVSA VL: DIVMTQSPSSLTVTAGEKVTMSCKSSQSLLNSGNQRNYLTWYQQKPGQPPKLLIYWASTRESGIPDRFIGSGSGTDFTLTISSVQAEDVSVYYCQNNYIFPLTFGAGTKLEIK"

# Molecular target: T2, human Claudin 18.1
# Experiment: flow cytometry on HEK293-Claudin 18.1 cells, chimeric IgG1
# Experimental: as §1
row,Binder,binding result
1,"9C9 (antibody, V domains shown, also called Clone 9C9) VH: EVQLKESGPGLVAPSQSLSITCTVSGFSLTNYGVSWIRQPPGKGLEWLGAIWAGGNTNYNSALMSRLSIRKDNSKSQVFLKMNSLQTDDTAMYYCARVGYGNSFANWGQGTLVTVSA VL: DIVMTQSPSSLTVTAGEKVTLSCKSSQTLLNSGNQKNYLTWYQQKPGQPPKLLIYWASTRESGVPDRFTGSGSGTDFTLTISSVQAEDLAVYYCQNNYFYPLTFGAGTRLEIK",no binding (tested: 100 nM (highest concentration tested))
2,"15D11 (antibody, V domains shown, also called Clone 15D11) VH: QVQLQQSGPGLVAPSQSLSITCTVSGFSLTNYGVSWIRQPPGKGLEWLGAIWAGGNTNYNSALMSRLSIRKDNSKSQVFLKMNSLQTDDTAMYYCARVGYGNSFANWGQGTLVTVSA VL: DIVMTQSPSSLTVTAGEKVTMSCKSSQSLLNSGNLRNYLTWYQQKPGRPPKLLIYWASTRESGVPDRFTGSGSGTDFTLTISSVQAEDLAVYYCQNNYFYPLTFGAGTKLELK",no binding (tested: 100 nM (highest concentration tested))
3,"25A5 (antibody, V domains shown, also called Clone 25A5) VH: EVQLKESGPGLVAPSQSLSITCTVSGFSLTNYGVSWIRQPPGKGLEWLGAIWAGGNTNYNSALMSRLSIRKDNSKSQVFLKMNSLQTDDTAMYYCARVGYGNSFANWGQGTLVTVSA VL: DIVMTQSPSSLTVTAGEKVTMSCKSSQSLLNSGNQRNYLTWYQQKPGQPPKLLIYWASTRESGIPDRFIGSGSGTDFTLTISSVQAEDVSVYYCQNNYIFPLTFGAGTKLEIK",no binding (tested: 100 nM (highest concentration tested))

# Molecular target: T1, human Claudin 18.2
# Experiment: flow cytometry (iQue) on cells, antibody from 100 nM in 5-fold steps; cell line not named in Example 5
# Experimental: The cells at logarithmic growth phase were taken, blocked with 3% BSA for 30 minutes, plated at 5×10⁴ cells/100 μL into a U-shaped 96-well plate, centrifuged at 1100 rpm for 3 minutes, the supernatant was discarded, the cells were gently patted and loosed, 50 μL of antibody diluted according to the series was added to each well (antibody concentration starts from 100 nM, 5 times dilution in 8 series), incubated at 4° C. for 1 hour. After the incubation, 140 μL of 0.5% BSA was added to each well to wash 3 times, AF 647 APC anti-human secondary antibody was added with 30 μL/well and incubated at 4° C. for 40 minutes. After the incubation, 140 μL of 0.5% BSA was added to each well to wash 3 times, and finally resuspended each well with 50 μL PBS for iQue (Intellicyt, USA) detection (shown in Table 2).
row,EC50 [nM],Binder
1,0.964,"h18A9.v25 (antibody, V domains shown, Humanized; also called 18A9VLv2 + 18A9VHv5) VH: QVQLVQSGAEVKKPGSSVKVSCKPSGYTFTNYLIDWVRQAPGQGLEWMGGINPGSGDTVYNEKFQGRVTITADESTSTAYMELSSLRSEDTAVYFCARRVRGNSFDSWGQGTLVTVSS VL: not shown"
2,1.41,"h18A9.v26 (antibody, V domains shown, Humanized; also called 18A9VLv2 + 18A9VHv6) VH: QVQLVQSGAEVKKPGASVKVSCKPSGYAFTNYLIDWVRQAPGQGLEWMGGINPGSGDTVYNEKFQGRVTLTADKSSSTAYMELSSLRSEDTAVYFCARRVRGNSFDSWGQGTLVTVSS VL: not shown"
3,0.646,"h18A9.v27 (antibody, V domains shown, Humanized; also called 18A9VLv2 + 18A9VHv7) VH: QVQLVQSGAEVKKPGASVKVSCKPSGYTFTNYLIDWVRQAPGQGLEWMGGINPGSGDTVYNEKFQGRVTLTADTSTSTVYMELSSLRSEDTAVYFCARRVRGNSFDSWGQGTLVTVSS VL: not shown"
4,0.912,"18D10.V13 (antibody, V domains shown, Humanized; also called 18D10VLv1 + 18D10VHv3) VH: QVQLQESGPGLVKPSETLSLTCTVSGGSISSNYAWNWIRQPPGKGLEWIGYINYSGNTNYNPSLKSRVTISRDTSKNQFSLKLSSVTAADTAVYYCATSYYGNSFIYWGQGTLVTVSS VL: DIVMTQSPDSLAVSLGERATINCKSSQSLLNSGNQKNYLTWYQQKPGQPPKLLIYWASTRESGVPDRFSGSGSGTDFTLTISSLQAEDVAVYYCQNAYSFPWTFGQGTKVEIK"
5,1.26,"18D10.V25 (antibody, V domains shown, Humanized; also called 18D10VLv2 + 18D10VHv5) VH: QVQLQESGPGLVKPSETLSLTCTVSGGSISSNYAWNWIRQPPGKGLEWIGYINYSGNTAYNPSLKSRVTISRDTSKNQFSLKLSSVTAADTAVYYCATSYYGNSFIYWGQGTLVTVSS VL: not shown"
6,0.982,"18D10.V23 (antibody, V domains shown, Humanized; also called 18D10VLv2 + 18D10VHv3) VH: QVQLQESGPGLVKPSETLSLTCTVSGGSISSNYAWNWIRQPPGKGLEWIGYINYSGNTNYNPSLKSRVTISRDTSKNQFSLKLSSVTAADTAVYYCATSYYGNSFIYWGQGTLVTVSS VL: not shown"
7,1.13,"18D10.V11 (antibody, V domains shown, Humanized; also called 18D10VLv1 + 18D10VHv1) VH: QVQLQESGPGLVKPSETLSLTCTVSGYSITSNYAWNWIRQPPGKGLEWIGYINYSGNTNYNPSLKSRVTISRDTSKNQFSLKLSSVTAADTAVYYCATSYYGNSFIYWGQGTLVTVSS VL: DIVMTQSPDSLAVSLGERATINCKSSQSLLNSGNQKNYLTWYQQKPGQPPKLLIYWASTRESGVPDRFSGSGSGTDFTLTISSLQAEDVAVYYCQNAYSFPWTFGQGTKVEIK"
8,2.69,"18D10.V15 (antibody, V domains shown, Humanized; also called 18D10VLv1 + 18D10VHv5) VH: QVQLQESGPGLVKPSETLSLTCTVSGGSISSNYAWNWIRQPPGKGLEWIGYINYSGNTAYNPSLKSRVTISRDTSKNQFSLKLSSVTAADTAVYYCATSYYGNSFIYWGQGTLVTVSS VL: DIVMTQSPDSLAVSLGERATINCKSSQSLLNSGNQKNYLTWYQQKPGQPPKLLIYWASTRESGVPDRFSGSGSGTDFTLTISSLQAEDVAVYYCQNAYSFPWTFGQGTKVEIK"
9,1.9,"18D10.V22 (antibody, V domains shown, Humanized; also called 18D10VLv2 + 18D10VHv2) VH: QVQLQESGPGLVKPSETLSLTCTVSGGSISSNYAWNWIRQPPGKGLEWMGYINYSGNTNYNPSLKSRITISRDTSKNQFSLKLSSVTAADTAVYYCATSYYGNSFIYWGQGTLVTVSS VL: not shown"
10,2.31,"18D10.V16 (antibody, V domains shown, Humanized; also called 18D10VLv1 + 18D10VHv6) VH: QVQLQESGPGLVKPSETLSLTCTVSGGSISSNYAWNWIRQPPGKGLEWIGYIYYSGNTNYNPSLKSRVTISRDTSKNQFSLKLSSVTAADTAVYYCATSYYGNSFIYWGQGTLVTVSS VL: DIVMTQSPDSLAVSLGERATINCKSSQSLLNSGNQKNYLTWYQQKPGQPPKLLIYWASTRESGVPDRFSGSGSGTDFTLTISSLQAEDVAVYYCQNAYSFPWTFGQGTKVEIK"
11,1.93,"18D10.V24 (antibody, V domains shown, Humanized; also called 18D10VLv2 + 18D10VHv4) VH: QVQLQESGPGLVKPSETLSLTCTVSGGSISSNYAWNWIRQPPGKGLEWIGYINYSGYTNYNPSLKSRVTISRDTSKNQFSLKLSSVTAADTAVYYCATSYYGNSFIYWGQGTLVTVSS VL: not shown"
12,1.87,"18D10.V26 (antibody, V domains shown, Humanized; also called 18D10VLv2 + 18D10VHv6) VH: QVQLQESGPGLVKPSETLSLTCTVSGGSISSNYAWNWIRQPPGKGLEWIGYIYYSGNTNYNPSLKSRVTISRDTSKNQFSLKLSSVTAADTAVYYCATSYYGNSFIYWGQGTLVTVSS VL: not shown"
13,1.07,"18D10.V21 (antibody, V domains shown, Humanized; also called 18D10VLv2 + 18D10VHv1) VH: QVQLQESGPGLVKPSETLSLTCTVSGYSITSNYAWNWIRQPPGKGLEWIGYINYSGNTNYNPSLKSRVTISRDTSKNQFSLKLSSVTAADTAVYYCATSYYGNSFIYWGQGTLVTVSS VL: not shown"
14,1.68,"18D10.V12 (antibody, V domains shown, Humanized; also called 18D10VLv1 + 18D10VHv2) VH: QVQLQESGPGLVKPSETLSLTCTVSGGSISSNYAWNWIRQPPGKGLEWMGYINYSGNTNYNPSLKSRITISRDTSKNQFSLKLSSVTAADTAVYYCATSYYGNSFIYWGQGTLVTVSS VL: DIVMTQSPDSLAVSLGERATINCKSSQSLLNSGNQKNYLTWYQQKPGQPPKLLIYWASTRESGVPDRFSGSGSGTDFTLTISSLQAEDVAVYYCQNAYSFPWTFGQGTKVEIK"
15,1.74,"18D10.V14 (antibody, V domains shown, Humanized; also called 18D10VLv1 + 18D10VHv4) VH: QVQLQESGPGLVKPSETLSLTCTVSGGSISSNYAWNWIRQPPGKGLEWIGYINYSGYTNYNPSLKSRVTISRDTSKNQFSLKLSSVTAADTAVYYCATSYYGNSFIYWGQGTLVTVSS VL: DIVMTQSPDSLAVSLGERATINCKSSQSLLNSGNQKNYLTWYQQKPGQPPKLLIYWASTRESGVPDRFSGSGSGTDFTLTISSLQAEDVAVYYCQNAYSFPWTFGQGTKVEIK"
